Reference: publication PMC5469197, “ANGUSTIFOLIA, a Plant Homolog of CtBP/BARS Localizes to Stress Granules and Regulates Their Formation” (Frontiers in Plant Science, 2017)

Molecular target: PROTEIN KINASE SU… PROTEIN (AIK1), Prot-A fusion (Arabidopsis thaliana)
Experiment: co-IP; LUMIER in HEK293TN cells: Prot-A fusion co-transfected with Renilla luciferase fusion (AN always the luciferase fusion with the interactors); luciferase activity before (input) and after pulldown; percentage pulldown = pulldown/input x 100; empty vectors as negative control; positive if more than two times the background

Sequence of PROTEIN KINASE SU… PROTEIN (AIK1), Prot-A fusion (Arabidopsis thaliana) (main, as listed by the source): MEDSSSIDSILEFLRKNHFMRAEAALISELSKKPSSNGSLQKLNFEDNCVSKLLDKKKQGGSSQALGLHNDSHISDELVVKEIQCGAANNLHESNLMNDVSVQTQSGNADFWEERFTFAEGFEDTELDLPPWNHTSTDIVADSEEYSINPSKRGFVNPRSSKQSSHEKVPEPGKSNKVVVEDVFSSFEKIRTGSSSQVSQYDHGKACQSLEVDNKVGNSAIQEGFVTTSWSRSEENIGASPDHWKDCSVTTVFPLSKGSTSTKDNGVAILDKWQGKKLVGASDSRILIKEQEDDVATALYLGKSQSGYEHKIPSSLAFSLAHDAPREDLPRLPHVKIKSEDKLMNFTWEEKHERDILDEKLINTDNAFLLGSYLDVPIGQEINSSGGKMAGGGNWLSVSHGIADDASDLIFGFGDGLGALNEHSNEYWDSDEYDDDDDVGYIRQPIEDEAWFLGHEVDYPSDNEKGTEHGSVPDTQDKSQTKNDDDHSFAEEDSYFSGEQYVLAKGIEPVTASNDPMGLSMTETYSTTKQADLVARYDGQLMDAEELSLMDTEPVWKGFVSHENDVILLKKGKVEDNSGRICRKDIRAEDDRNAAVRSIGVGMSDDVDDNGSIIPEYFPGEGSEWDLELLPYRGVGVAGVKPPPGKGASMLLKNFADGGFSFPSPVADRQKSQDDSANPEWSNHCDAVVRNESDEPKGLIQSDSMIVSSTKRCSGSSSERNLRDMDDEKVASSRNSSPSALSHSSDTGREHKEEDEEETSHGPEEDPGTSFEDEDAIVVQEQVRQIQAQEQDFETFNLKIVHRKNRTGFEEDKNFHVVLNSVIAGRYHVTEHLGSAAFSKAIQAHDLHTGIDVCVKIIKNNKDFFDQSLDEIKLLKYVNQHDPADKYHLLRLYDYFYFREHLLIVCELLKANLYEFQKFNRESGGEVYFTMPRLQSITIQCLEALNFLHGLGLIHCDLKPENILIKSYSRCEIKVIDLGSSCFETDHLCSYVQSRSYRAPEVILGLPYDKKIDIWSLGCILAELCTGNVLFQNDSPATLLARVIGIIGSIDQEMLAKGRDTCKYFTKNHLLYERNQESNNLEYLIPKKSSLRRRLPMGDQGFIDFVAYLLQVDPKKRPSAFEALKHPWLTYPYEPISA

- interaction as percent of wild-type AN (% of wild-type AN): 1.6
B1: AN^DOQ, Renilla luciferase fusion (LUMIER) (natural protein)
chain: MSKIRSSATMPHRDQPSPASPHVVTLNCIEDCALEQDSLAGVAGVEYVPLSRIADGKIESATAVLLHSLAYLPRAAQRRLRPHQLILCLGSADRAVDSTLAADLGLRLVHVDTSRAEEIADTVMALILGLLRRTHLLSRHALSASGWLGSLQPLCRGMRRCRGMVLGIVDRSVSARYLASRSLAFKMSVLYFDVPEGDEERIRPSRFPRAARRMDTLNDLLAASDVISLHCALTNDTVQILNAECLQHIKPGAFLVNTGSCQLLDDCAVKQLLIDGTIAGCALDGAEGPQWMEAWVKEMPNVLILPRSADYSEEVWMEIREKAISILHSFFLDGVIPSNTVSDEEVEESEASEEEEQSPSKHEKLAIVESTSRQQGESTLTSTEIVRREASELKESLSPGQQHVSQNTAVKPEGRRSRSGKKAKKRHSQQKYMQKTDGSSGLNEESTSRRDDIAMSDTEEVLSSSSRCASPEDSRSRKTPLEVMQESSPNQLVMSSKKFIGKSSELLKDGYVVALYAKDLSGLHVSRQRTKNGGWFLDTLSNVSKRDPAAQFIIAYRNKDTVGLRSFAAGGKLLQINRRMEFVFASHSFDVWESWSLEGSLDECRLVNCRNSSAVLDVRVEILAMVGDDGITRWID
